# Source: patent publication US20150079657
# Tests used:
# Assay in all cases: cell_activity
# [1] = tested on: ZF(Oct4+286)-p300 (Artificial Sequence); conditions: OCT4 mRNA in HEK293; at least 20-fold in K562; H3K27ac increased
# [2] = tested on: ZF(Oct4+420)-p300 (Artificial Sequence); conditions: OCT4 mRNA in HEK293; at least 20-fold in K562; H3K27ac increased
# [3] = tested on: ZF(Sox2+185)-p300 (Artificial Sequence); conditions: SOX2 mRNA in HEK293; nearly 2-fold or greater in K562
# [4] = tested on: ZF(Sox2+r475)-p300 (Artificial Sequence); conditions: SOX2 mRNA in HEK293; nearly 2-fold or greater in K562
# ZF(Sox2+r475)-p300 (Artificial Sequence), sequence (chain, as listed by the source): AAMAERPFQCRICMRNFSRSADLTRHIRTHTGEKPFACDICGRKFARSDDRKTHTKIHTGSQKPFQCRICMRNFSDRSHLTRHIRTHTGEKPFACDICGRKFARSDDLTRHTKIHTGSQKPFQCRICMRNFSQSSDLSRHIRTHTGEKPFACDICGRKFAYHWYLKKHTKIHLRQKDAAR
# ZF(Sox2+185)-p300 (Artificial Sequence), sequence (chain, as listed by the source): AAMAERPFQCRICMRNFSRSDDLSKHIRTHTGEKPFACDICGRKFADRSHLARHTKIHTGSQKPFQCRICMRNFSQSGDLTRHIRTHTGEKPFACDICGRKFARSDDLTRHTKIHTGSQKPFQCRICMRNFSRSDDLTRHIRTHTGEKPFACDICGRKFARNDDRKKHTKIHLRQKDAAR
# ZF(Oct4+286)-p300 (Artificial Sequence), sequence (chain, as listed by the source): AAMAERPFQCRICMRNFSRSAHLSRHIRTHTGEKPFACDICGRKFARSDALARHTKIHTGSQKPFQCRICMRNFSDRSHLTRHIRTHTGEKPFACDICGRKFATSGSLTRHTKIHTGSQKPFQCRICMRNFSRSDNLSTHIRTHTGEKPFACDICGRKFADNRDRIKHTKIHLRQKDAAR
# ZF(Oct4+420)-p300 (Artificial Sequence), sequence (chain, as listed by the source): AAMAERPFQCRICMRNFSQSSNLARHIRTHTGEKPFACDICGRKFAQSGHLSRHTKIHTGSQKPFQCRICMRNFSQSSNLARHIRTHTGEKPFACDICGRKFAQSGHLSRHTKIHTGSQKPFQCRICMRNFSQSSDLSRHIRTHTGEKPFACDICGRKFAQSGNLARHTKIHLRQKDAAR
substance,measurement,setting,value
OCT4 +286 target site,activity,[1],> 90 fold
OCT4 +420 target site,activity,[2],> 90 fold
SOX2 +185 target site,activity,[3],> 1.5 fold
SOX2 +r475 target site (reverse strand),activity,[4],> 1.5 fold
